According to doi:10.1101/2022.06.01.494241 (bioRxiv, 2022):

Target: T1, μMASS^2A (rat)
T1 chain: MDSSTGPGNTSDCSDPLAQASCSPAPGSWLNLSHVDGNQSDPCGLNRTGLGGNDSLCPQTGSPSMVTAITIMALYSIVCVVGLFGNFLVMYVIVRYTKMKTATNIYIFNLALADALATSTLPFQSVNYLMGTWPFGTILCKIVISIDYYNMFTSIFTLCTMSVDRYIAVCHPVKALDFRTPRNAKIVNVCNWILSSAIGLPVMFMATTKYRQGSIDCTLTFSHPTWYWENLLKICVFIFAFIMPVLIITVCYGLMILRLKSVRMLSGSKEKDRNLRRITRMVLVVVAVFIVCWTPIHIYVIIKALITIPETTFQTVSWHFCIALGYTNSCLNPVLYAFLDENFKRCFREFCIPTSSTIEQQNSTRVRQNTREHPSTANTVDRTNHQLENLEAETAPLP
Test: other fluorescence titration

- Kd: 1180 nM
Binder: YGGFMTSEKSQTPLVTLFKNAIIKNAYKKGE (peptide, UniProt P01189 237-267, looked up) [β-endorphin]
